Literature values in publication PMC10366146.

Target: VEGFR2 (Homo sapiens) (UniProt P35968)
UniProt P35968, sequence (P35968 20-1356): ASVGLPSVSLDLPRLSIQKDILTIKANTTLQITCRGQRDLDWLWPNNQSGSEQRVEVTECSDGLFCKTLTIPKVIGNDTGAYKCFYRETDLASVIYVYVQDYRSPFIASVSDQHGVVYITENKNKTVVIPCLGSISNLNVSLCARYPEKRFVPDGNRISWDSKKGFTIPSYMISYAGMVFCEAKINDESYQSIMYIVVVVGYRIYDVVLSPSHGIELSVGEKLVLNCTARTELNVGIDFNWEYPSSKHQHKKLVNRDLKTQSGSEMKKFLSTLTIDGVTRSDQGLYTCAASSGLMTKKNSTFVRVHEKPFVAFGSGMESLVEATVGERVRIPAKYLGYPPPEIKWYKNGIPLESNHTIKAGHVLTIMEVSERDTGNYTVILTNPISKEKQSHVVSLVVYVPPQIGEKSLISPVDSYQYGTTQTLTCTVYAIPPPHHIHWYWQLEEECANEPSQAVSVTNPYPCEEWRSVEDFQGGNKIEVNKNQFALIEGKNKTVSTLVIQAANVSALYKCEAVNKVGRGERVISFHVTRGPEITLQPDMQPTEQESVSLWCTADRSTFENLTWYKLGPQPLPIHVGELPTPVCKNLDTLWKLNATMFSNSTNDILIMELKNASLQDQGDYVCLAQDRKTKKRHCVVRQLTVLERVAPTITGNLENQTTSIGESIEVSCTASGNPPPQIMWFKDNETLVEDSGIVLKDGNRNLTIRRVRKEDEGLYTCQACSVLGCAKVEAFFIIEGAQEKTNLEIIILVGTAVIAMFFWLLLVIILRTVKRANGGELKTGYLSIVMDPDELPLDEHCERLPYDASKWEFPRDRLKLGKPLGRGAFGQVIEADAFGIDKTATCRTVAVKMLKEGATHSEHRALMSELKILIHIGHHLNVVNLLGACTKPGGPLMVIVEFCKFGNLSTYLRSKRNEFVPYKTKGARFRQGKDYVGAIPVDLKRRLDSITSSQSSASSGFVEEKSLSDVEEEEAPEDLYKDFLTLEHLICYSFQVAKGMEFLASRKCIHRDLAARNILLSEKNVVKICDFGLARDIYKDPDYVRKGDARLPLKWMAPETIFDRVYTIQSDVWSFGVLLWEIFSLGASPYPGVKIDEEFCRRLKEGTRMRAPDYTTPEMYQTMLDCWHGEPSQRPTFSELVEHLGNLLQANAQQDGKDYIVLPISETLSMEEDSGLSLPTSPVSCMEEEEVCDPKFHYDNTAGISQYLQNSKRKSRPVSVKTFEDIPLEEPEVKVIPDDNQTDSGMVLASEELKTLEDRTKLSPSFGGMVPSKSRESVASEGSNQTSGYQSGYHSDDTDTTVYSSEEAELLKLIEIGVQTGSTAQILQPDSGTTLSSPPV

VEGF121 VEGF121 (from UniProt P15692)
Kd: 5.5 nM
